This note sets out measurements from publication PMC5026484 (eLife, 2016).

One data set concerns the target T1, Rab10 residues 1-175 (human, UniProt P61026 1-175).
T1 construct: Rab10, human, residues 1-175; Used for the crystal of the 2:1 complex with Mical-1 918-1067; also called Rab10_(1-175); source: expressed and purified as described previously (Bleimling et al., 2009)
T1 sequence (looked up): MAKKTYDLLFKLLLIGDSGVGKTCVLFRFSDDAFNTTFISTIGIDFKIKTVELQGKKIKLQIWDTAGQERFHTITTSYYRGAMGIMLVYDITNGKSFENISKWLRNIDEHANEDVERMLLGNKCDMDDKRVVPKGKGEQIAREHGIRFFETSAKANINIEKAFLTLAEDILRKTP
In words: crystal structure; X-ray; sitting/hanging-drop vapour diffusion, 20°C; data from beamline X10SA, SLS. Particulars: both partners purified.

Data set [1] deals with T2, Rab8a, full length, loaded with GppNHp (human, UniProt P61006 1-207).
T2 construct: Rab8a, human; called Rab8 in the results and Rab8aFl in the crystallisation methods; also called Rab8aFl; source: expressed and purified as described previously (Bleimling et al., 2009), loaded with GppNHp, gel filtration
T2 sequence (looked up): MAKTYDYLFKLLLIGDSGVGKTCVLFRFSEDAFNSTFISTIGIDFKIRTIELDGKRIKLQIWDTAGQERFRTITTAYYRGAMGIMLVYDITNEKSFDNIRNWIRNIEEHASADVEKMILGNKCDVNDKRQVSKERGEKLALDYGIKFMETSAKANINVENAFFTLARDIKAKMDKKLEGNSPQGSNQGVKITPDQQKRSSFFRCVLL
In words: SEC; analytical size exclusion chromatography, Superdex S75 10/300 GL; 130 µM Rab:GppNHp + 112.5 µM (113 µM) bMERB domain; 20 mM Hepes pH 7.5, 50 mM NaCl, 2 mM DTE, 2 mM MgCl2. Particulars: both partners purified. (In general: SEC sorts molecules by how far they enter the pores of the column.)

Data set [2] concerns the target T3, Rab10, full length, loaded with GppNHp (human, UniProt P61026 1-200).
T3 construct: Rab10, human; Rab10Fl in the crystallisation methods; also called Rab10Fl; source: expressed and purified as described previously (Bleimling et al., 2009), loaded with GppNHp, gel filtration
T3 sequence (looked up): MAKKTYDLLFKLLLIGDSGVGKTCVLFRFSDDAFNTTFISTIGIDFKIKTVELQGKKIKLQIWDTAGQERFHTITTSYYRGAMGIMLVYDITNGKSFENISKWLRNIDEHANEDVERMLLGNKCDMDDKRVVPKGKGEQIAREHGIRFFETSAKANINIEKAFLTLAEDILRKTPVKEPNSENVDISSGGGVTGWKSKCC
The data set is described as above. Particulars: both partners purified.

Data set [3] concerns the molecule itself. In words: crystal structure; X-ray; sitting/hanging-drop vapour diffusion, 20°C; data from beamline X10SA, SLS.

B1: bMERB domain (Rab binding domain) of Mical-1, residues 918-1067 (domain or fragment, human, UniProt Q8TDZ2 918-1067, looked up)
chain: KEEEMKRFCKAQTIQRRLNEIEAALRELEAEGVKLELALRRQSSSPEQQKKLWVGQLLQLVDKKNSLVAEEAELMITVQELNLEEKQWQLDQELRGYMNREENLKTAADRQAEDQVLRKLVDLVNQRDALIRFQEERRLSELALGTGAQG
notes: Mical-1, human, bMERB domain, residues 918-1067 (isoform 1); Limits are stated for the crystallised construct; also called Mical-1_(918-1067); RBD of Mical-1
Regarding B1, the binding result (with Rab10 residues 1-175; in data set [1]; in data set [2]) was “binds” each time.

B2: Selenomethionine derivative of Mical-3 residues 1841-1990 (domain or fragment, human, UniProt Q7RTP6 1841-1990, looked up)
chain: KQEELKRLHRAQIIQRQLQQVEERQRRLEERGVAVEKALRGEAGMGKKDDPKLMQEWFKLVQEKNAMVRYESELMIFARELELEDRQSRLQQELRERMAVEDHLKTEEELSEEKQILNEMLEVVEQRDSLVALLEEQRLREREEDKDLEA
modifications: selenomethionine in place of methionine
notes: Mical-3, human, whole predicted bMERB domain, residues 1841-1990 (isoform 1); printed elsewhere as 1841-1992; Two copies in the asymmetric unit of the crystal; also called SeMet Mical-3; seleno-L-methionine labelled Mical-3_(1841–1990)
Regarding B2, the binding result in data set [3] is “binds”.
